Laboratory results taken from paper PMC2132731 (The Journal of Cell Biology, 1998).
Where “and” joins values, the source holds several entries; their conditions need not be identical. Equal entries are not always repeated.

Key:
[1] = target: GST-yAP180A C5 (S. cerevisiae); assay: pull-down
[2] = target: T1, Pan1p EH1–2 (96–713) (S. cerevisiae, UniProt P32521 96-713); assay: two-hybrid
T1 sequence (looked up): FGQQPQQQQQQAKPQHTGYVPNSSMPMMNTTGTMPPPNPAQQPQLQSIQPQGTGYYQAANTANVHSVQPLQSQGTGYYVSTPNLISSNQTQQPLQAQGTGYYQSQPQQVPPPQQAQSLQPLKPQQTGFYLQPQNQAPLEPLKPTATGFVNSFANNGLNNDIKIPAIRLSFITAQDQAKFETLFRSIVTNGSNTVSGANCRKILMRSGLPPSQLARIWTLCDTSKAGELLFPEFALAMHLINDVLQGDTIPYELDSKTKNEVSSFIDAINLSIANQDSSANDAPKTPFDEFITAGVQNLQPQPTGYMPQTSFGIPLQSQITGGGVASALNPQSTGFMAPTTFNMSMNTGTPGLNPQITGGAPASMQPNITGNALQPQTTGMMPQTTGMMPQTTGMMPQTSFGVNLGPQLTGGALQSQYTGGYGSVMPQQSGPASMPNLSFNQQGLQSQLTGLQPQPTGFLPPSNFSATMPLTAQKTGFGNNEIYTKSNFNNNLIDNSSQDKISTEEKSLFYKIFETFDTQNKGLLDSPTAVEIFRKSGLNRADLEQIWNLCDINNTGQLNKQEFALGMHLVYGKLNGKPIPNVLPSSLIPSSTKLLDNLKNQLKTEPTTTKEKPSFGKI

[3] = target: T2, Pan1p EH1 (96–403) (S. cerevisiae, UniProt P32521 96-403); assay: two-hybrid
T2 sequence (looked up): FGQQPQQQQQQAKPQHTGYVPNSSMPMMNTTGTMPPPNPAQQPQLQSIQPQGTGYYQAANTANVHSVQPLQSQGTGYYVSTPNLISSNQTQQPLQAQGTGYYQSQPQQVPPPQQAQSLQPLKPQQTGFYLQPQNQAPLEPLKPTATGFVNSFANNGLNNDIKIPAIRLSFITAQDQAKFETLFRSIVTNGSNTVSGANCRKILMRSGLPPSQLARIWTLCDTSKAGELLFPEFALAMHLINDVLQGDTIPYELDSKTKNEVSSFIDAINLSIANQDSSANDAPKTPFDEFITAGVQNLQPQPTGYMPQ

[4] = target: T3, Pan1p EH2 (96–145/403–713) (S. cerevisiae, UniProt P32521 96-145; P32521 403-713); assay: two-hybrid
T3 chain (looked up): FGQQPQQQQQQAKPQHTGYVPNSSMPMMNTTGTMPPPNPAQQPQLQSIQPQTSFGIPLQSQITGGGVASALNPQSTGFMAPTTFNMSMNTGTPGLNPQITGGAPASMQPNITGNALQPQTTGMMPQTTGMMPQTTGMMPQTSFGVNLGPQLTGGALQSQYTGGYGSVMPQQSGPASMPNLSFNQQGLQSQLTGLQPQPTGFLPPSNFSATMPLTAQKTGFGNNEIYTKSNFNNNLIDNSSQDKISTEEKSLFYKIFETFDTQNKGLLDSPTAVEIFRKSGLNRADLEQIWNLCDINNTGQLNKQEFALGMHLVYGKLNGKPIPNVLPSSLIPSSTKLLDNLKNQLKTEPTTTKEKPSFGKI

[5] = target: T4, Pan1p EH2 (544–713) (S. cerevisiae, UniProt P32521 544-713); assay: two-hybrid
T4 sequence (looked up): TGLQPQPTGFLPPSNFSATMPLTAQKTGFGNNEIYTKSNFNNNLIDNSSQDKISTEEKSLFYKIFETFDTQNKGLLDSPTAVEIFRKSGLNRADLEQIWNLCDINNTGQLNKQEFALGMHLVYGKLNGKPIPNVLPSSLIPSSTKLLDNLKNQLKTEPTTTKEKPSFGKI

[6] = target: T5, Pan1p (S. cerevisiae (endogenous in yeast cells)), P32521; assay: co-IP; conditions: remark: other sources report otherwise
T5 chain: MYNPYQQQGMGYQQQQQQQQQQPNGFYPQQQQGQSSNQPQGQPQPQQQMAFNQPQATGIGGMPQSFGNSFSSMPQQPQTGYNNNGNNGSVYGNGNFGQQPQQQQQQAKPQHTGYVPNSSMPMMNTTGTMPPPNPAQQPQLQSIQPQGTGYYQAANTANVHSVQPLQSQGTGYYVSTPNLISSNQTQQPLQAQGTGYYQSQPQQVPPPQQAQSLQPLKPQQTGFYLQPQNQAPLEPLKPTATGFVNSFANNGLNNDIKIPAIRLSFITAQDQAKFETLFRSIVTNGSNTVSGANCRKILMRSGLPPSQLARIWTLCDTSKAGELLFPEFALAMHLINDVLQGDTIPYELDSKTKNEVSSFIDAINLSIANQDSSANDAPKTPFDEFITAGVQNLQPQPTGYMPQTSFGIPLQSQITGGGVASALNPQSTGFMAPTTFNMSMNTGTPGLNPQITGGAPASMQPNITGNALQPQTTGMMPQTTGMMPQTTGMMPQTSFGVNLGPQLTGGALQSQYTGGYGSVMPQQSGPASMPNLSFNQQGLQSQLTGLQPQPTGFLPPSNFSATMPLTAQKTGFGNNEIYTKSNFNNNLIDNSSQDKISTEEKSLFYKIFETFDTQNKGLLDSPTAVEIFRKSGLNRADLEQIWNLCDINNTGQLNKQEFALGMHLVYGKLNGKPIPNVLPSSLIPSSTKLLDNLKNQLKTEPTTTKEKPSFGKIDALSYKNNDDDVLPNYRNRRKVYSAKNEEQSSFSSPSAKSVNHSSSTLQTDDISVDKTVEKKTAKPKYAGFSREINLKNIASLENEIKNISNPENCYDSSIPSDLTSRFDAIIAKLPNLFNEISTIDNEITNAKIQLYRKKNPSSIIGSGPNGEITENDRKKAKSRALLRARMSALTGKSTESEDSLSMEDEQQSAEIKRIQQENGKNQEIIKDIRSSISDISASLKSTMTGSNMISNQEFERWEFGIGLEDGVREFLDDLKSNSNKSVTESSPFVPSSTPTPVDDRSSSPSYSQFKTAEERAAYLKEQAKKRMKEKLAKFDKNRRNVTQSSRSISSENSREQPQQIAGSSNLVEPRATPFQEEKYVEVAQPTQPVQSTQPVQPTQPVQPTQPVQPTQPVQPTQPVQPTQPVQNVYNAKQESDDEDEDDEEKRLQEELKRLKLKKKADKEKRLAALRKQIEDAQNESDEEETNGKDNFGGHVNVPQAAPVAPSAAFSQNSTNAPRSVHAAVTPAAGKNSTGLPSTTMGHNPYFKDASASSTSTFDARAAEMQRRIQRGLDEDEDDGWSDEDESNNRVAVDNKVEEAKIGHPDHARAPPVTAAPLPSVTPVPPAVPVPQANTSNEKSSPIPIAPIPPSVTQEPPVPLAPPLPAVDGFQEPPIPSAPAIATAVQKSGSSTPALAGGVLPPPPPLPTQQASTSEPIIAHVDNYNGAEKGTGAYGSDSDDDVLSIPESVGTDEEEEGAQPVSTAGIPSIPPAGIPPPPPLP

## yeast clathrin (from UniProt P22137 1-1653; P17891 1-233) (complex)
[1]
  percent of Chc1p depleted from the unbound fraction: 50%

B1: yAP180A 432–637 (domain or fragment, S. cerevisiae, UniProt P38856 432-637, looked up)
chain: GGYSVSQDTTAASNQQVSHSQTGSNNPFALHNAATIATGNPAHENVLNNPFSRPNFDEQNTNMPLQQQIISNPFQNQTYNQQQFQQQKMPLSSINSVMTTPTSMQGSMNIPQRFDKMEFQAHYTQNHLQQQQQQQQQQQQQQQQQPQQGYYVPATAGANPVTNITGTVQPQNFPFYPQQQPQPEQSQTQQPVLGNQYANNLNLIDM
[2]
  units β-galactosidase activity: 117 ± 75 Units β-galactosidase activity
[3]
  units β-galactosidase activity: 6 ± 1 Units β-galactosidase activity
[4]
  units β-galactosidase activity: 33 ± 4 Units β-galactosidase activity
[5]
  units β-galactosidase activity: 4 ± 1 Units β-galactosidase activity

B2: yAP180A, P38856 1-637 (natural protein)
chain: MTTYFKLVKGATKIKSAPPKQKYLDPILLGTSNEEDFYEIVKGLDSRINDTAWTIVYKSLLVVHLMIREGSKDVALRYYSRNLEFFDIENIRGSNGSASGDMRALDRYDNYLKVRCREFGKIKKDYVRDGYRTLKLNSGNYGSSRNKQHSINIALDHVESLEVQIQALIKNKYTQYDLSNELIIFGFKLLIQDLLALYNALNEGIITLLESFFELSHHNAERTLDLYKTFVDLTEHVVRYLKSGKTAGLKIPVIKHITTKLVRSLEEHLIEDDKTHNTFVPVDSSQGSAGAVVAKSTAQERLEQIREQKRILEAQLKNEQVAISPALTTVTAAQSYNPFGTDSSMHTNIPMAVANQTQQIANNPFVSQTQPQVMNTPTAHTEPANLNVPEYAAVQHTVNFNPVQDAGVSAQQTGYYSINNHLTPTFTGAGFGGYSVSQDTTAASNQQVSHSQTGSNNPFALHNAATIATGNPAHENVLNNPFSRPNFDEQNTNMPLQQQIISNPFQNQTYNQQQFQQQKMPLSSINSVMTTPTSMQGSMNIPQRFDKMEFQAHYTQNHLQQQQQQQQQQQQQQQQQPQQGYYVPATAGANPVTNITGTVQPQNFPFYPQQQPQPEQSQTQQPVLGNQYANNLNLIDM
[6]
  percent of yAP180A coimmunoprecipitated: 3% and 5%

B3: yAP180B 429–568 (domain or fragment, S. cerevisiae, UniProt P53309 429-568, looked up)
chain: GGYTTTENNAIMTGTLDPTKTGSNNPFSLENIAREQQQQNFQNSPNPFTLQQAQTTPILAHSQTGNPFQAQNVVTSPMGTYMTNPVAGQLQYASTGAQQQPQMMQGQQTGYVMVPTAFVPINQQQQQQQHQQENPNLIDI
[2]
  units β-galactosidase activity: 362 ± 67 Units β-galactosidase activity
[3]
  units β-galactosidase activity: 70 ± 9 Units β-galactosidase activity
[4]
  units β-galactosidase activity: 342 ± 15 Units β-galactosidase activity
[5]
  units β-galactosidase activity: 158 ± 15 Units β-galactosidase activity

B4: yAP180A 24–637 (domain or fragment, S. cerevisiae, UniProt P38856 24-637, looked up)
chain: LDPILLGTSNEEDFYEIVKGLDSRINDTAWTIVYKSLLVVHLMIREGSKDVALRYYSRNLEFFDIENIRGSNGSASGDMRALDRYDNYLKVRCREFGKIKKDYVRDGYRTLKLNSGNYGSSRNKQHSINIALDHVESLEVQIQALIKNKYTQYDLSNELIIFGFKLLIQDLLALYNALNEGIITLLESFFELSHHNAERTLDLYKTFVDLTEHVVRYLKSGKTAGLKIPVIKHITTKLVRSLEEHLIEDDKTHNTFVPVDSSQGSAGAVVAKSTAQERLEQIREQKRILEAQLKNEQVAISPALTTVTAAQSYNPFGTDSSMHTNIPMAVANQTQQIANNPFVSQTQPQVMNTPTAHTEPANLNVPEYAAVQHTVNFNPVQDAGVSAQQTGYYSINNHLTPTFTGAGFGGYSVSQDTTAASNQQVSHSQTGSNNPFALHNAATIATGNPAHENVLNNPFSRPNFDEQNTNMPLQQQIISNPFQNQTYNQQQFQQQKMPLSSINSVMTTPTSMQGSMNIPQRFDKMEFQAHYTQNHLQQQQQQQQQQQQQQQQQPQQGYYVPATAGANPVTNITGTVQPQNFPFYPQQQPQPEQSQTQQPVLGNQYANNLNLIDM
[2]
  units β-galactosidase activity: 78 ± 2 Units β-galactosidase activity
[3]
  units β-galactosidase activity: 18 ± 7 Units β-galactosidase activity
[4]
  units β-galactosidase activity: 23 ± 4 Units β-galactosidase activity
[5]
  units β-galactosidase activity: 2 ± 0.4 Units β-galactosidase activity
